Reference: PMC9017247

Columns and labels:
[1] = target: recombinant SARS-CoV-2 spike protein (SARS-CoV-2) (UniProt P0DTC2); assay: ITC; MicroCal ITC200; 50 uM rGRFT injected (2 uL, 120 s intervals) into the cell with 280 uL of 1 uM spike protein; 1x PBS, pH 7.4
[2] = target: recombinant SARS-CoV-2 spike protein (SARS-CoV-2) (UniProt P0DTC2); assay: QCM-D; spike protein (400 ug/mL) immobilised by EDC/NHS on an 11-MUA carboxylated gold sensor, ethanolamine-blocked; 0.5-10 uM rGRFT flowed in turn at 20 uL/min, 1x PBS

Which results are given for “recombinant griffithsin lectin protein (rGRFT) (from UniProt P84801 1-121) (natural protein)”?
Kd [1]: 9.9 µM; stoichiometry N (rGRFT per spike) [1]: 6; Kd [2]: 1.6 µM
